In patent US20060039904A1:
Several values for one entry are separate records, joined by “and”; a condition that tells them apart may be missing. Identical values can stand only once.

Assays:
[1] = target: FcγRIIIA (soluble receptor used as analyte in the BIAcore runs) (human) (UniProt P08637); test: BIAcore run 1, IgG immobilized, soluble FcγRIIIA, Scatchard plot
[2] = target: FcγRIIIA (soluble receptor used as analyte in the BIAcore runs) (human) (UniProt P08637); test: BIAcore run 2, IgG immobilized, soluble FcγRIIIA, Scatchard plot
[3] = target: FcγRIIIA (soluble receptor used as analyte in the BIAcore runs) (human) (UniProt P08637); test: BIAcore run 1, IgG immobilized, soluble FcγRIIIA, steady-state isotherm
[4] = target: FcγRIIIA (soluble receptor used as analyte in the BIAcore runs) (human) (UniProt P08637); test: BIAcore run 2, IgG immobilized, soluble FcγRIIIA, steady-state isotherm
[5] = target: FcγRIIB-streptavidin fusion protein (tetramer) (human; Streptomyces avidinii) (UniProt P31994); test: ELISA: antibody captured on protein A/G, FcγRIIB-streptavidin, biotin-HRP, OD450
[6] = target: FcγRIIIA-streptavidin fusion protein (tetramer) (human; Streptomyces avidinii) (UniProt P08637); test: ELISA: antibody captured on protein A/G, FcγRIIIA tetramer (streptavidin fusion), biotin-HRP, OD450

FcγRIIIA (soluble receptor used as analyte in the BIAcore runs) (human), sequence (P08637 17-208): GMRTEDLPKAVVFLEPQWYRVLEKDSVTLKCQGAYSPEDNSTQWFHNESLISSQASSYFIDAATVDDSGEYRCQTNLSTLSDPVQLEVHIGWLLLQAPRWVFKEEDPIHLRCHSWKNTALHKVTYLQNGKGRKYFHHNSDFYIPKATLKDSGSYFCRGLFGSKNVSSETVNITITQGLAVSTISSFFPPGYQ

EC50 (read off the curve) [5]	EC50 (read off the curve) [6]	Substance	also measured
0.4 mg/L and 0.3 mg/L		Vitaxin® (wild type IgG1 antibody)	Kd [1]: 3.26 µM; Kd [2]: 7.6 µM; Kd [3]: 3.47 µM; Kd [4]: 8.9 µM
	0.05 mg/L	3F2-1M (3F2 Fc variant I332E, IgG1) (from UniProt P01857 1-330) (antibody)	
	0.05 mg/L	3F2-3M (3F2 Fc variant S239D/A330L/I332E, IgG1) (from UniProt P01857 1-330) (antibody)	
0.3 mg/L		Vitaxin®-1M (Vitaxin® Fc variant I332E, IgG1) (from UniProt P01857 1-330) (antibody)	
